Data reported in paper PMC10980815, “Cell surface patching via CXCR4-targeted nanothreads for cancer metastasis inhibition” (Nature Communications, 2024).
Ends that are not written are not given here. HPMA copolymer = HPMA copolymer made by RAFT copolymerization of HPMA with N-(3-aminopropyl)methacrylamide (APMA), bearing maleimide groups for grafting

Assay: Pharmacokinetics at each cycle of a four-round treatment regimen
Type: in vivo, female mice
Parameters: PK curves: unit not given here
Details: for AUC0-t / AUC0-∞ / MRT0-t / MRT0-∞ / T1/2z: same

Substance: P-CM2-Cy3: Cy3-labeled P-CM2 (C(HPMA copolymer)YGGEVSALEKEVSALEKKNSALEKEVSALEKEVSALEK; also: Cy3 label on conjugate, position not given here)
- PK curves (Round 3, Time 0.041667 Day, replicate 1): 171.135
- PK curves (Round 3, Time 0.041667 Day, replicate 2): 180.496
- PK curves (Round 3, Time 0.041667 Day, replicate 3): 188.668
- PK curves (Round 3, Time 0.041667 Day, replicate 4): 205.584
- PK curves (Round 3, Time 0.041667 Day, replicate 5): 224.681
- PK curves (Round 3, Time 0.083333 Day, replicate 1): 156.708
- PK curves (Round 3, Time 0.083333 Day, replicate 2): 161.465
- PK curves (Round 3, Time 0.083333 Day, replicate 3): 162.063
- PK curves (Round 3, Time 0.083333 Day, replicate 4): 168.293
- PK curves (Round 3, Time 0.083333 Day, replicate 5): 190.32
- PK curves (Round 3, Time 0.166667 Day, replicate 1): 118.152
- PK curves (Round 3, Time 0.166667 Day, replicate 2): 137.258
- PK curves (Round 3, Time 0.166667 Day, replicate 3): 138.998
- PK curves (Round 3, Time 0.166667 Day, replicate 4): 139.637
- PK curves (Round 3, Time 0.166667 Day, replicate 5): 146.663
- PK curves (Round 3, Time 0.25 Day, replicate 1): 101.928
- PK curves (Round 3, Time 0.25 Day, replicate 2): 105.033
- PK curves (Round 3, Time 0.25 Day, replicate 3): 108.293
- PK curves (Round 3, Time 0.25 Day, replicate 4): 115.298
- PK curves (Round 3, Time 0.25 Day, replicate 5): 119.681
- PK curves (Round 3, Time 0.333333 Day, replicate 1): 71.2229
- PK curves (Round 3, Time 0.333333 Day, replicate 2): 72.9543
- PK curves (Round 3, Time 0.333333 Day, replicate 3): 93.0071
- PK curves (Round 3, Time 0.333333 Day, replicate 4): 101.069
- PK curves (Round 3, Time 0.333333 Day, replicate 5): 102.809
- PK curves (Round 3, Time 0.5 Day, replicate 1): 54.5332
- PK curves (Round 3, Time 0.5 Day, replicate 2): 55.1656
- PK curves (Round 3, Time 0.5 Day, replicate 3): 58.857
- PK curves (Round 3, Time 0.5 Day, replicate 4): 63.5997
- PK curves (Round 3, Time 0.5 Day, replicate 5): 67.2877
- PK curves (Round 3, Time 1 Day, replicate 1): 18.8846
- PK curves (Round 3, Time 1 Day, replicate 2): 19.9794
- PK curves (Round 3, Time 1 Day, replicate 3): 34.0857
- PK curves (Round 3, Time 1 Day, replicate 4): 37.3031
- PK curves (Round 3, Time 1 Day, replicate 5): 39.9731
- PK curves (Round 3, Time 2 Day, replicate 1): 13.6659
- PK curves (Round 3, Time 2 Day, replicate 2): 15.2182
- PK curves (Round 3, Time 2 Day, replicate 3): 16.959
- PK curves (Round 3, Time 2 Day, replicate 4): 18.4095
- PK curves (Round 3, Time 2 Day, replicate 5): 23.265
- PK curves (Round 3, Time 3 Day, replicate 1): 5.299
- PK curves (Round 3, Time 3 Day, replicate 2): 5.6755
- PK curves (Round 3, Time 3 Day, replicate 3): 6.127
- PK curves (Round 3, Time 3 Day, replicate 4): 11.4512
- PK curves (Round 3, Time 3 Day, replicate 5): 11.8082
- AUC0-t (Round 3): 2847.475 ± 463.394 ng·h/mL
- AUC0-∞ (Round 3): 3060.689 ± 565.511 ng·h/mL
- MRT0-t (Round 3): 17.779 ± 1.27 h
- MRT0-∞ (Round 3): 23.927 ± 3.854 h
- T1/2z (Round 3): 19.193 ± 3.042 h
- PK curves (Round 4, Time 0.041667 Day, replicate 1): 230.725
- PK curves (Round 4, Time 0.041667 Day, replicate 2): 194.218
- PK curves (Round 4, Time 0.041667 Day, replicate 3): 209.902
- PK curves (Round 4, Time 0.041667 Day, replicate 4): 229.24
- PK curves (Round 4, Time 0.041667 Day, replicate 5): 229.61
- PK curves (Round 4, Time 0.083333 Day, replicate 1): 173.583
- PK curves (Round 4, Time 0.083333 Day, replicate 2): 157.544
- PK curves (Round 4, Time 0.083333 Day, replicate 3): 163.249
- PK curves (Round 4, Time 0.083333 Day, replicate 4): 167.214
- PK curves (Round 4, Time 0.083333 Day, replicate 5): 205.861
- PK curves (Round 4, Time 0.166667 Day, replicate 1): 141.479
- PK curves (Round 4, Time 0.166667 Day, replicate 2): 127.721
- PK curves (Round 4, Time 0.166667 Day, replicate 3): 129.082
- PK curves (Round 4, Time 0.166667 Day, replicate 4): 138.936
- PK curves (Round 4, Time 0.166667 Day, replicate 5): 150.211
- PK curves (Round 4, Time 0.25 Day, replicate 1): 117.333
- PK curves (Round 4, Time 0.25 Day, replicate 2): 116.423
- PK curves (Round 4, Time 0.25 Day, replicate 3): 120.111
- PK curves (Round 4, Time 0.25 Day, replicate 4): 124.299
- PK curves (Round 4, Time 0.25 Day, replicate 5): 125.432
- PK curves (Round 4, Time 0.333333 Day, replicate 1): 69.1458
- PK curves (Round 4, Time 0.333333 Day, replicate 2): 73.8277
- PK curves (Round 4, Time 0.333333 Day, replicate 3): 84.2185
- PK curves (Round 4, Time 0.333333 Day, replicate 4): 100.254
- PK curves (Round 4, Time 0.333333 Day, replicate 5): 118.152
- PK curves (Round 4, Time 0.5 Day, replicate 1): 43.1042
- PK curves (Round 4, Time 0.5 Day, replicate 2): 47.0545
- PK curves (Round 4, Time 0.5 Day, replicate 3): 50.0192
- PK curves (Round 4, Time 0.5 Day, replicate 4): 54.418
- PK curves (Round 4, Time 0.5 Day, replicate 5): 70.7604
- PK curves (Round 4, Time 1 Day, replicate 1): 21.2271
- PK curves (Round 4, Time 1 Day, replicate 2): 23.1099
- PK curves (Round 4, Time 1 Day, replicate 3): 27.0861
- PK curves (Round 4, Time 1 Day, replicate 4): 30.0884
- PK curves (Round 4, Time 1 Day, replicate 5): 41.0104
- PK curves (Round 4, Time 2 Day, replicate 1): 4.911
- PK curves (Round 4, Time 2 Day, replicate 2): 16.8258
- PK curves (Round 4, Time 2 Day, replicate 3): 17.3047
- PK curves (Round 4, Time 2 Day, replicate 4): 21.1219
- PK curves (Round 4, Time 2 Day, replicate 5): 21.2086
- PK curves (Round 4, Time 3 Day, replicate 1): 3.457
- PK curves (Round 4, Time 3 Day, replicate 2): 6.287
- PK curves (Round 4, Time 3 Day, replicate 3): 7.344
- PK curves (Round 4, Time 3 Day, replicate 4): 8.892
- PK curves (Round 4, Time 3 Day, replicate 5): 12.3135
- AUC0-t (Round 4): 2805.642 ± 501.797 ng·h/mL
- AUC0-∞ (Round 4): 3022.978 ± 666.243 ng·h/mL
- MRT0-t (Round 4): 16.883 ± 2.739 h
- MRT0-∞ (Round 4): 22.801 ± 5.68 h
- T1/2z (Round 4): 18.712 ± 5.773 h
